{"source": "patent US9782344B2", "about": "“Stable glucagon peptide formulations” (ZP Opco, Inc., priority 2013, dated 2017)", "origin": "cited, not measured here", "note": "Read-outs that look alike come from different tables or passages of the source.", "data": [{"substance": "glucagon", "values": [{"measurement": "behaviour in aqueous solution", "setting": "pH below 3 or above 9", "value": "readily dissolved"}, {"measurement": "behaviour in aqueous solution", "setting": "pH between 4 and 8", "value": "precipitates readily"}]}]}
